Experimental findings from paper PMC5563082 (2017) are described below.

Common to all, as to assay: SPR
In general terms: In SPR one partner is held on a chip, and binding of the other changes the refractive index at the surface.

Test [1] addresses T1, human NL1(–A–B)_(ECTO), biotinylated and immobilised for SPR (human, biotin on the Avitag (in vivo biotinylation by BirA)).
T1 chain: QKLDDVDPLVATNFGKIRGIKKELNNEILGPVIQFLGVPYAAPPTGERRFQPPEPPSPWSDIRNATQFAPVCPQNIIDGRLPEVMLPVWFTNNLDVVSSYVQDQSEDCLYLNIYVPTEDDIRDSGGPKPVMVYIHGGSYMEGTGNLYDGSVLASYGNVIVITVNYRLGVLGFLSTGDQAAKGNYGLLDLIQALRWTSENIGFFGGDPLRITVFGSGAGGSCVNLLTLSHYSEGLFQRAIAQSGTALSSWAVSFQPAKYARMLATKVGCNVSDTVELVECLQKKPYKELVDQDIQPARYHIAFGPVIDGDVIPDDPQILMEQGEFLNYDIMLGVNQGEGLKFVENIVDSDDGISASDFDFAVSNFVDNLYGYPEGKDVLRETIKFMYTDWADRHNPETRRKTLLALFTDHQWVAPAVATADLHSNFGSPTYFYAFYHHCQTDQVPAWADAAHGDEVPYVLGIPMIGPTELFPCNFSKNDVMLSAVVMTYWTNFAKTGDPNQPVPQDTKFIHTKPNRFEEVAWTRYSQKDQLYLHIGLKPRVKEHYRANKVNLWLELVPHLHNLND

Test [2] has as its target human NL3(–A)_(ECTO) Arg451Cys, immobilised for SPR (human, UniProt Q9NZ94-1 38-636, –A: nothing between Asp152 and Asp193 | R451C, biotin on the Avitag (in vivo biotinylation by BirA)).
Test [3] concerns the target T2, human NL1(–A–B)_(ECTO) Arg450Cys, immobilised for SPR (human, biotin on the Avitag (in vivo biotinylation by BirA)).
T2 chain: T1 chain with R379C

Test [4] has as its target T1, human NL1(–A–B)_(ECTO), biotinylated ….

Residue numbers refer to the chain shown, from its start. Where two headings read alike, the source gives them in different places.

human NL3(–A)_(ECTO) Arg451Cys, immobilised for SPR, sequence (Q9NZ94 other isoform, or with tags, fused parts or gaps –A: nothing between Asp152 and Asp193 | R451C | R451C): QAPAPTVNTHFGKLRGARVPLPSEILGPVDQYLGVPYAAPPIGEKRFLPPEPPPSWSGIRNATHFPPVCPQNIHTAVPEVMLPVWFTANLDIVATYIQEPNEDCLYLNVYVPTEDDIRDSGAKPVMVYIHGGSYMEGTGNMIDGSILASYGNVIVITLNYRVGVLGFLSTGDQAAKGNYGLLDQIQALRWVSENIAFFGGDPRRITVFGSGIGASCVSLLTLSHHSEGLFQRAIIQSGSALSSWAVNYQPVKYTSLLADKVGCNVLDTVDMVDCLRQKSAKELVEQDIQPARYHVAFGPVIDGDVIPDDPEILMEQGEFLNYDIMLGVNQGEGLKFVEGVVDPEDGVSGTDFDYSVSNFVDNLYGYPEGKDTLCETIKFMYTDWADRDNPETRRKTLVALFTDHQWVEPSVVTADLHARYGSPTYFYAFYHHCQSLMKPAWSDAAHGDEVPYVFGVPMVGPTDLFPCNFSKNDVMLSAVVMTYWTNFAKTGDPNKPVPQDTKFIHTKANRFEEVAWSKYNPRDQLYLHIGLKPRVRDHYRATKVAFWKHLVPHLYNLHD

B1: human MDGA2 extracellular domain (MDGA2_(ECTO); Gln21-Lys927) (domain or fragment)
chain: QGVYAPPTVRIVHSGLACNIEEERYSERVYTIREGETLELTCLVTGHPRPQIRWTKTAGSASDRFQDSSVFNETLRITNIQRHQGGRYYCKAENGLGSPAIKSIRVDVYYLDDPVVTVHQSIGEAKEQFYYERTVFLRCVANSNPPVRYSWRRGQEVLLQGSDKGVEIYEPFFTQGETKILKLKNLRPQDYANYSCIASVRNVCNIPDKMVSFRLSNKTASPSIKLLVDDPIVVNPGEAITLVCVTTGGEPAPSLTWVRSFGTLPEKTVLNGGTLTIPAITSDDAGTYSCIANNNVGNPAKKSTNIIVRALKKGRFWITPDPYHKDDNIQIGREVKISCQVEAVPSEELTFSWFKNGRPLRSSERMVITQTDPDVSPGTTNLDIIDLKFTDFGTYTCVASLKGGGISDISIDVNISSSTVPPNLTVPQEKSPLVTREGDTIELQCQVTGKPKPIILWSRADKEVAMPDGSMQMESYDGTLRIVNVSREMSGMYRCQTSQYNGFNVKPREALVQLIVQYPPAVEPAFLEIRQGQDRSVTMSCRVLRAYPIRVLTYEWRLGNKLLRTGQFDSQEYTEYAVKSLSNENYGVYNCSIINEAGAGRCSFLVTGKAYAPEFYYDTYNPVWQNRHRVYSYSLQWTQMNPDAVDRIVAYRLGIRQAGQQRWWEQEIKINGNIQKGELITYNLTELIKPEAYEVRLTPLTKFGEGDSTIRVIKYSAPVNPHLREFHCGFEDGNICLFTQDDTDNFDWTKQSTATRNTKYTPNTGPNADRSGSKEGFYMYIETSRPRLEGEKARLLSPVFSIAPKNPYGPTNTAYCFSFFYHMYGQHIGVLNVYLRLKGQTTIENPLWSSSGNKGQRWNEAHVNIYPITSFQLIFEGIRGPGIEGDIAIDDVSIAEGECAKQDLATK
Turning to B1, binding in test [1] was characterised by a dissociation constant (Kd) of 1690 nM. In other words, the single-digit micromolar range.

B2: human β-neurexin-1 LNS6 domain lacking SS4 (β-NRX1_(LNS6)(–4); His85-Val265) (domain or fragment)
chain: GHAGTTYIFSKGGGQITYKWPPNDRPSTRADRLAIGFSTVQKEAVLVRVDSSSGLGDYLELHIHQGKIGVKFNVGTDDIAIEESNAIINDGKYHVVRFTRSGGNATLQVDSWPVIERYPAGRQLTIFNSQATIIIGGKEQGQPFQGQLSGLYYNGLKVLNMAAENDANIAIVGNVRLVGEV
Take B2: the results for the Kd in test [2], in test [1] and in test [3] were 10800 nM, 640 nM and 760 nM, respectively.

B3: human MDGA1 extracellular domain (MDGA1_(ECTO); Gln19-Lys925) (domain or fragment)
chain: QGVYAPAQAQIVHAGQACVVKEDNISERVYTIREGDTLMLQCLVTGHPRPQVRWTKTAGSASDKFQETSVFNETLRIERIARTQGGRYYCKAENGVGVPAIKSIRVDVQYLDEPMLTVHQTVSDVRGNFYQEKTVFLRCTVNSNPPARFIWKRGSDTLSHSQDNGVDIYEPLYTQGETKVLKLKNLRPQDYASYTCQVSVRNVCGIPDKAITFRLTNTTAPPALKLSVNETLVVNPGENVTVQCLLTGGDPLPQLQWSHGPGPLPLGALAQGGTLSIPSVQARDSGYYNCTATNNVGNPAKKTVNLLVRSMKNATFQITPDVIKESENIQLGQDLKLSCHVDAVPQEKVTYQWFKNGKPARMSKRLLVTRNDPELPAVTSSLELIDLHFSDYGTYLCMASFPGAPVPDLSVEVNISSETVPPTISVPKGRAVVTVREGSPAELQCEVRGKPRPPVLWSRVDKEAALLPSGLPLEETPDGKLRLERVSRDMSGTYRCQTARYNGFNVRPREAQVQLNVQFPPEVEPSSQDVRQALGRPVLLRCSLLRGSPQRIASAVWRFKGQLLPPPPVVPAAAEAPDHAELRLDAVTRDSSGSYECSVSNDVGSAACLFQVSAKAYSPEFYFDTPNPTRSHKLSKNYSYVLQWTQREPDAVDPVLNYRLSIRQLNQHNAVVKAIPVRRVEKGQLLEYILTDLRVPHSYEVRLTPYTTFGAGDMASRIIHYTEPINSPNLSDNTCHFEDEKICGYTQDLTDNFDWTRQNALTQNPKRSPNTGPPTDISGTPEGYYMFIETSRPRELGDRARLVSPLYNASAKFYCVSFFYHMYGKHIGSLNLLVRSRNKGALDTHAWSLSGNKGNVWQQAHVPISPSGPFQIIFEGVRGPGYLGDIAIDDVTLKKGECPRKQTDPNK
In the case of B3, the Kd (as a rule, a measure of binding affinity in units of concentration) in test [4] came to 1720 nM; in test [1] it was 3620 nM.

B4: human β-neurexin-1 LNS6 domain with SS4 (β-NRX1_(LNS6)(+4)) (domain or fragment)
chain: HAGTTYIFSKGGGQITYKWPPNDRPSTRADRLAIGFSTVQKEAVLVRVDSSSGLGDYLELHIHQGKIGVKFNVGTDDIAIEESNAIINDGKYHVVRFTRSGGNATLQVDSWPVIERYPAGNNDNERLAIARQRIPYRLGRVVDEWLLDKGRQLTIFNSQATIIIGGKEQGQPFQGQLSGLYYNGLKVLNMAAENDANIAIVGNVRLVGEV
Consider B4, for which the dissociation constant Kd in test [4] was 2590 nM; in test [2] it was 47900 nM; in test [1], 2630 nM; in test [3] it was 2700 nM.
